From patent publication US20160347808A1 (IMMATICS BIOTECHNOLOGIES, published 2016) come the findings set out here.

This assay addresses T1, HLA-A*02:01 (peptide-receptive MHC class I monomer from UV-ligand exchange) (human).
T1 construct: Monomers were captured on streptavidin-coated plates
The assay is described as follows: UV-exchange ELISA (anti-b2m); exchange yield grade: + >=10%, ++ >=20%, +++ >=50%, ++++ >=75%. From the text: Candidate peptides for T cell based therapies according to the present invention were further tested for their MHC binding capacity (affinity). The individual peptide-MHC complexes were produced by UV-ligand exchange, where a UV-sensitive peptide is cleaved upon UV-irradiation, and exchanged with the peptide of interest as analyzed. Only peptide candidates that can effectively bind and stabilize the peptide-receptive MHC molecules prevent dissociation of the MHC complexes. To determine the yield of the exchange reaction, an ELISA was performed based on the detection of the light chain (β2m) of stabilized MHC complexes. The assay was performed as generally described in Rodenko et al. (Rodenko et al., 2006).
96 well MAXISorp plates (NUNC) were coated over night with 2 ug/ml streptavidin in PBS at room temperature, washed 4× and blocked for 1 h at 37° C. in 2% BSA containing blocking buffer. Refolded HLA-A*02:01/MLA-001 monomers served as standards, covering the range of 15-500 ng/ml. Peptide-MHC monomers of the UV-exchange reaction were diluted 100 fold in blocking buffer. Samples were incubated for 1 h at 37° C., washed four times, incubated with 2 ug/ml HRP conjugated anti-β2m for 1 h at 37° C., washed again and detected with TMB solution that is stopped with […]. Absorption was measured at 450 nm. Candidate peptides that show a high exchange yield (preferably higher than 50%, most preferred higher than 75%) are generally preferred for a generation and production of antibodies or fragments thereof, and/or T cell receptors or fragments thereof, as they show sufficient avidity to the MHC molecules and prevent dissociation of the MHC complexes.
Background: ELISA stands for enzyme-linked immunosorbent assay.

B1: peptide KLGDFGLLVEL (SEQ ID NO 125) (peptide)
peptide: KLGDFGLLVEL
With B1, the peptide exchange yield was at least 75%.

B2: peptide LVYQFVHPI (SEQ ID NO 116) (peptide)
peptide: LVYQFVHPI
B2: the peptide exchange yield lay within 20 to 50%.

B3: peptide ALSDETWGL (SEQ ID NO 146) (peptide)
peptide: ALSDETWGL
Regarding B3, the peptide exchange yield is 20 to 50%.

B4: peptide FLLAEDTKV (SEQ ID NO 13) (peptide)
peptide: FLLAEDTKV
As for B4, the peptide exchange yield lay within 50 to 75%.

B5: peptide KQFEGTVEI (SEQ ID NO 138) (peptide)
peptide: KQFEGTVEI
In the case of B5, the peptide exchange yield lay in the range of 50 to 75%.

B6: peptide SLAELVPGVGGI (SEQ ID NO 108) (peptide)
peptide: SLAELVPGVGGI
Take B6: the peptide exchange yield fell in the range of 50 to 75%.

B7: peptide LLGELPRLLLL (SEQ ID NO 110) (peptide)
peptide: LLGELPRLLLL
Consider B7, for which the peptide exchange yield lay in the range of 50 to 75%.

B8: peptide TLQPVDNSTISL (SEQ ID NO 117) (peptide)
peptide: TLQPVDNSTISL
For the molecule B8, the peptide exchange yield is 20 to 50%.

B9: peptide ALDGDQMEL (SEQ ID NO 109) (peptide)
peptide: ALDGDQMEL
B9: the peptide exchange yield was in the range of 20 to 50%.

B10: peptide SLMGMVLKL (SEQ ID NO 122) (peptide)
peptide: SLMGMVLKL
On to B10, for which the peptide exchange yield was 50 to 75%.

B11: peptide GVAGGSILKGV (SEQ ID NO 134) (peptide)
peptide: GVAGGSILKGV
In the case of B11, the peptide exchange yield was at least 75%.

B12: peptide TLTELRAFL (SEQ ID NO 147) (peptide)
peptide: TLTELRAFL
Consider B12, for which the peptide exchange yield was at least 75%.

B13: peptide LLADLKTMV (SEQ ID NO 118) (peptide)
peptide: LLADLKTMV
With B13, the peptide exchange yield lay in the range of 50 to 75%.

B14: peptide YLFEKTFNM (SEQ ID NO 11) (peptide)
peptide: YLFEKTFNM
With B14, the peptide exchange yield lay in the range of 50 to 75%.

B15: peptide VLLNEILEQV (SEQ ID NO 139) (peptide)
peptide: VLLNEILEQV
For B15, the peptide exchange yield was in the range of 50 to 75%.

B16: peptide LLLEVVKQV (SEQ ID NO 145) (peptide)
peptide: LLLEVVKQV
Take B16: the peptide exchange yield was in the range of 50 to 75%.

B17: peptide KLFDIFSQQV (SEQ ID NO 136) (peptide)
peptide: KLFDIFSQQV
B17: the peptide exchange yield was 50 to 75%.

B18: peptide RTFEKIEEV (SEQ ID NO 133) (peptide)
peptide: RTFEKIEEV
B18: the peptide exchange yield lay within 20 to 50%.

B19: peptide ALLNAILHSA (SEQ ID NO 132) (peptide)
peptide: ALLNAILHSA
Regarding B19, the peptide exchange yield fell in the range of 50 to 75%.

B20: peptide VLYEGVDEV (SEQ ID NO 120) (peptide)
peptide: VLYEGVDEV
As for B20, the peptide exchange yield was 20 to 50%.

B21: peptide SLISEKILL (SEQ ID NO 106) (peptide)
peptide: SLISEKILL
As for B21, the peptide exchange yield was in the range of 50 to 75%.

B22: peptide QLTEIKPLL (SEQ ID NO 137) (peptide)
peptide: QLTEIKPLL
Consider B22, for which the peptide exchange yield was 50 to 75%.

B23: peptide LLNDRIWLA (SEQ ID NO 144) (peptide)
peptide: LLNDRIWLA
As to B23, the peptide exchange yield is 50 to 75%.

B24: peptide RMYNKIFAI (SEQ ID NO 10) (peptide)
peptide: RMYNKIFAI
On to B24, for which the peptide exchange yield lay within 50 to 75%.

B25: peptide ALVQGILERV (SEQ ID NO 12) (peptide)
peptide: ALVQGILERV
Regarding B25, the peptide exchange yield is 50 to 75%.

B26: peptide VLIDVLKEL (SEQ ID NO 129) (peptide)
peptide: VLIDVLKEL
Turning to B26, the peptide exchange yield was in the range of 50 to 75%.

B27: peptide KTLERSYLL (SEQ ID NO 123) (peptide)
peptide: KTLERSYLL
Take B27: the peptide exchange yield lay within 20 to 50%.

B28: peptide GLGGSQLIDTHL (SEQ ID NO 130) (peptide)
peptide: GLGGSQLIDTHL
With B28, the peptide exchange yield lay in the range of 20 to 50%.

B29: peptide SLFDVSHML (SEQ ID NO 115) (peptide)
peptide: SLFDVSHML
Regarding B29, the peptide exchange yield lay within 50 to 75%.

B30: peptide KLSDVWKEL (SEQ ID NO 143) (peptide)
peptide: KLSDVWKEL
In the case of B30, the peptide exchange yield lay in the range of 50 to 75%.

B31: peptide KLGQVLIYL (SEQ ID NO 112) (peptide)
peptide: KLGQVLIYL
As to B31, the peptide exchange yield lay within 20 to 50%.

B32: peptide RLAELTVDEFLA (SEQ ID NO 127) (peptide)
peptide: RLAELTVDEFLA
On to B32, for which the peptide exchange yield lay within 50 to 75%.

B33: peptide ILYDLQQNL (SEQ ID NO 113) (peptide)
peptide: ILYDLQQNL
As to B33, the peptide exchange yield lay in the range of 20 to 50%.

B34: peptide TLAKYLMEL (SEQ ID NO 126) (peptide)
peptide: TLAKYLMEL
For B34, the peptide exchange yield lay within 50 to 75%.

B35: peptide KLQEEIPVL (SEQ ID NO 135) (peptide)
peptide: KLQEEIPVL
Consider B35, for which the peptide exchange yield was in the range of 20 to 50%.

B36: peptide ILLTIKDDTIYL (SEQ ID NO 104) (peptide)
peptide: ILLTIKDDTIYL
Regarding B36, the peptide exchange yield is 50 to 75%.

B37: peptide ALLGGGPYML (SEQ ID NO 107) (peptide)
peptide: ALLGGGPYML
In the case of B37, the peptide exchange yield was in the range of 50 to 75%.

B38: peptide RVLPPSALQSV (SEQ ID NO 124) (peptide)
peptide: RVLPPSALQSV
For B38, the peptide exchange yield fell in the range of 50 to 75%.

B39: peptide FLDKPEDVLL (SEQ ID NO 14) (peptide)
peptide: FLDKPEDVLL
Regarding B39, the peptide exchange yield was in the range of 20 to 50%.

B40: peptide ILYQTVTGL (SEQ ID NO 119) (peptide)
peptide: ILYQTVTGL
Take B40: the peptide exchange yield fell in the range of 20 to 50%.

B41: peptide AVIEHLERL (SEQ ID NO 141) (peptide)
peptide: AVIEHLERL
Take B41: the peptide exchange yield was at least 75%.

B42: peptide TAVGHALVL (SEQ ID NO 114) (peptide)
peptide: TAVGHALVL
B42: the peptide exchange yield is 10 to 20%.

B43: peptide SLAPNIISQL (SEQ ID NO 121) (peptide)
peptide: SLAPNIISQL
With B43, the peptide exchange yield fell in the range of 50 to 75%.

B44: peptide YALDLSTFL (SEQ ID NO 105) (peptide)
peptide: YALDLSTFL
B44: the peptide exchange yield was in the range of 50 to 75%.

B45: peptide KLLDVVHPA (SEQ ID NO 131) (peptide)
peptide: KLLDVVHPA
As for B45, the peptide exchange yield lay in the range of 20 to 50%.

B46: peptide LLNEILEQV (SEQ ID NO 140) (peptide)
peptide: LLNEILEQV
For the molecule B46, the peptide exchange yield was 50 to 75%.

B47: peptide ALIKQLFEA (SEQ ID NO 1) (peptide)
peptide: ALIKQLFEA
notes: also called ZNF-002
As to B47, the peptide exchange yield fell in the range of 50 to 75%.

B48: peptide SLVQRVETI (SEQ ID NO 142) (peptide)
peptide: SLVQRVETI
notes: also called ECT2-001
For B48, the peptide exchange yield was in the range of 50 to 75%.

B49: peptide MLDDRAYLV (SEQ ID NO 128) (peptide)
peptide: MLDDRAYLV
As to B49, the peptide exchange yield was 20 to 50%.
